In paper doi:10.1101/2020.02.11.944462 (bioRxiv, 2020):

Biological target: T1, human angiotensin-converting enzyme 2 (ACE2), residues 1-615, untagged (human, UniProt Q9BYF1 18-615)
T1 construct: also called human ACE2; not shown: TwinStrepTag, C-terminal, cleaved; 8XHisTag, C-terminal, cleaved
Test: SPR; […], Biacore X100; 10 mM HEPES pH 8.0, 150 mM NaCl, 0.05% Tween 20; […]; 1:1 binding model
Conditions: both partners purified

T1 sequence (Q9BYF1 18-615): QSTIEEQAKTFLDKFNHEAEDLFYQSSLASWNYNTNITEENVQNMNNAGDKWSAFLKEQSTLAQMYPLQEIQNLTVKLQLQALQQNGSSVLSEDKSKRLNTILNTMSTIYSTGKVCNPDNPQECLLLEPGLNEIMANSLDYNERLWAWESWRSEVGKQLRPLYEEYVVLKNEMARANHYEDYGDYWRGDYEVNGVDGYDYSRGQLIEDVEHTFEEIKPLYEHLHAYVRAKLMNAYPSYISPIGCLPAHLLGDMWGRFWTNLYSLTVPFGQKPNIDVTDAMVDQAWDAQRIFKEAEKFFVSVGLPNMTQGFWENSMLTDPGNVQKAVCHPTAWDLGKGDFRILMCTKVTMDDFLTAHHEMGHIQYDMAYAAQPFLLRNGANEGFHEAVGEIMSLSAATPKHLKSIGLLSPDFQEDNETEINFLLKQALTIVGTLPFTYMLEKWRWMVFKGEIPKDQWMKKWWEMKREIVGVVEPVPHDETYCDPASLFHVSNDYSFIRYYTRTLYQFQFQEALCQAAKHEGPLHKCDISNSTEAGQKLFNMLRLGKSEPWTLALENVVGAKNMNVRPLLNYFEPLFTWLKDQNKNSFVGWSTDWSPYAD

B1: SARS-CoV RBD-SD1 (S residues 306-577, Urbani strain), His-tagged (domain or fragment)
chain: not shown
binding result: binds
